Holding throughout (assay): EMSA
One data set concerns the target T1, PRPF39 NTD (human, UniProt Q86UA1 1-296).
T1 sequence: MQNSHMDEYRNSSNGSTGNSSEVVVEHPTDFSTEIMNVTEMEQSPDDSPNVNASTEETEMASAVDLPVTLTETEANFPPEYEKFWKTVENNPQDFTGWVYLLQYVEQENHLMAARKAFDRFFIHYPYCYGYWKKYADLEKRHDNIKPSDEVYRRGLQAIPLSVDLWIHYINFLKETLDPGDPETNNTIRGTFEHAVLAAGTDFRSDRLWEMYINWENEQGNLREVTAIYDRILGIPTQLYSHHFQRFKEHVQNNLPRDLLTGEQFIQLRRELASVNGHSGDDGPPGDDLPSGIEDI

The target of another data set is T2, PRPF39 CTD (human, UniProt Q86UA1 297-669).
T2 sequence: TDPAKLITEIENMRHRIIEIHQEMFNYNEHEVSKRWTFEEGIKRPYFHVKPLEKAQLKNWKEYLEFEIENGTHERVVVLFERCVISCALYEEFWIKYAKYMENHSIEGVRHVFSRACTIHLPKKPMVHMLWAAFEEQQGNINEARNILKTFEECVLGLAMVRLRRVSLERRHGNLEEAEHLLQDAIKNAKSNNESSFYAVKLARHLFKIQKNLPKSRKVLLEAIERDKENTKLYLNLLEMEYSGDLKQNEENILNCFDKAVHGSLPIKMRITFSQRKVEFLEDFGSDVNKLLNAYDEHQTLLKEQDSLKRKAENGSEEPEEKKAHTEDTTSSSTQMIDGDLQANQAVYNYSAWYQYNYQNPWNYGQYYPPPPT

For another data set, the target named is T3, PRPF39 full-length (human, UniProt Q86UA1 1-669).
T3 sequence: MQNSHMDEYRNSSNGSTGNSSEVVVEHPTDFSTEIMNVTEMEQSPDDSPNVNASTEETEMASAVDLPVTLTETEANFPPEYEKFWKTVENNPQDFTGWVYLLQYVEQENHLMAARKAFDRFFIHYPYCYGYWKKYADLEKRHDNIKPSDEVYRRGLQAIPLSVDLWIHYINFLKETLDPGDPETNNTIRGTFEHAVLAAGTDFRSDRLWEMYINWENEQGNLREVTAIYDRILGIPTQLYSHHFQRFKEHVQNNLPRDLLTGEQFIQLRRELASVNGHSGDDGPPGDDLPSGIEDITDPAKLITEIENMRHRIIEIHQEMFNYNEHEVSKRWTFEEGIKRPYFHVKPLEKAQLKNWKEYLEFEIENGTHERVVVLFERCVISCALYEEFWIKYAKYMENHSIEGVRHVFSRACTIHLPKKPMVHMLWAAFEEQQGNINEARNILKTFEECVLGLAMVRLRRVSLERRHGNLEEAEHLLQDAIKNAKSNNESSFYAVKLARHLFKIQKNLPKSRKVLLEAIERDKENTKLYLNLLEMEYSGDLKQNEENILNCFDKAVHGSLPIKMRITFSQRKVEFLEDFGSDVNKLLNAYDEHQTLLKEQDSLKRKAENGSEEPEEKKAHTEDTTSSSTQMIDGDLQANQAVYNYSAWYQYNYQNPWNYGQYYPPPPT

Take AAAAAAAAAA (ssRNA) [10 nt poly(A) RNA oligo]: the binding result with PRPF39 NTD and with PRPF39 CTD was “no binding” throughout.

Take GGCCCCCCGG (ssRNA) [GC-rich RNA oligo]: the equilibrium dissociation constant (Kd) with PRPF39 full-length stood at 516 ± 256 nM.

The record behind these values is paper PMC9808567.
